Measured values: patent publication US20220177587A1, “METHODS AND USES OF VARIANT CD80 FUSION PROTEINS AND RELATED CONSTRUCTS” (Alpine Immune Sciences, Inc., priority 2018, published 2022)
Positions count from the first letter of the chain named. Names and notes keep the numbering of the source. Values belong to the binder of their own block, whether it stands above or below them.

Assays:
CD28 (human) [1] = target: CD28 (human) (UniProt P10747); assay: flow cytometry, transfected Expi293F cells
human CTLA-4 (human) [2] = target: human CTLA-4 (human) (UniProt P16410); assay: flow cytometry, transfected Expi293F cells
Chain of human CTLA-4 (human) (P16410 36-223): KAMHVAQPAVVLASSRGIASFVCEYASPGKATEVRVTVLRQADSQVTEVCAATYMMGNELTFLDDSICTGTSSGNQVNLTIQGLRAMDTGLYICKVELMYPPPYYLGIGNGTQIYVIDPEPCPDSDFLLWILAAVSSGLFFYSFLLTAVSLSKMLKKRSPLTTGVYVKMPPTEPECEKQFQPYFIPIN

human PD-L1 (human) [3] = target: human PD-L1 (human) (UniProt Q9NZQ7); assay: flow cytometry, transfected Expi293F cells
Chain of human PD-L1 (human) (Q9NZQ7 19-290): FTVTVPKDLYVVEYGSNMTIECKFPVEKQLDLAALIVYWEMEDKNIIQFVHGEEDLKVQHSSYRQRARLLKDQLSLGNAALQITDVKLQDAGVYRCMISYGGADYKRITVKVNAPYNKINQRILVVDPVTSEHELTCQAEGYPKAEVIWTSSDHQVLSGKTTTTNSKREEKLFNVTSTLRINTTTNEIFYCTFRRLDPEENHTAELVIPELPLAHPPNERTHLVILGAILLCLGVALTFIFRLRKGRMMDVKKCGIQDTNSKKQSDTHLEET

[4] = target: human PD-L1 (huPD-L1), on stably transduced CHO cells (human) (UniProt Q9NZQ7); assay: flow cytometry; ratio of MFI on CHO/huPD-L1 cells to MFI on Jurkat (CD28) cells
Chain of human PD-L1 (huPD-L1), on stably transduced CHO cells (human) (Q9NZQ7 19-290): as above

[5] = target: human CTLA-4 (huCTLA4), on stably transduced CHO cells (human) (UniProt P16410); assay: flow cytometry on CHO/huCTLA4 cells; MFI relative to WT CD80 (CD80 WT IgV-Fc = 1.0)
Chain of human CTLA-4 (huCTLA4), on stably transduced CHO cells (human) (P16410 36-223): as the sequence (P16410 36-223) above

[6] = target: human PD-L1 (huPD-L1), on stably transduced CHO cells (human) (UniProt Q9NZQ7); assay: flow cytometry on CHO/huPD-L1 cells; MFI relative to WT CD80 (CD80 WT IgV-Fc = 1.0)
[7] = target: CD28, endogenously expressed on Jurkat/IL2 reporter cells (human) (UniProt P10747); assay: flow cytometry on Jurkat (CD28) cells; MFI relative to WT CD80 (CD80 WT IgV-Fc = 1.0)
[8] = target: human CTLA-4 (huCTLA4), on stably transduced CHO cells (human) (UniProt P16410); assay: flow cytometry on CHO cells stably expressing huCTLA4, 33.3 nM Fc fusion, PE anti-human Fc
[9] = target: human PD-L1 (huPD-L1), on stably transduced CHO cells (human) (UniProt Q9NZQ7); assay: flow cytometry on CHO cells stably expressing huPD-L1, 33.3 nM Fc fusion, PE anti-human Fc
[10] = target: CD28, endogenously expressed on Jurkat/IL2 reporter cells (human) (UniProt P10747); assay: flow cytometry on Jurkat/IL2 reporter cells (endogenous CD28), 33.3 nM Fc fusion, PE anti-human Fc
human CTLA-4 (human) [11] = target: human CTLA-4 (human) (UniProt P16410); assay: flow cytometry, CHO cells expressing huCTLA4
human PD-L1 (human) [12] = target: human PD-L1 (human) (UniProt Q9NZQ7); assay: flow cytometry, CHO cells expressing huPD-L1
CD28 (human) [13] = target: CD28 (human) (UniProt P10747); assay: flow cytometry, Jurkat/IL2 reporter cells (CD28)
human CTLA-4 (human) [14] = target: human CTLA-4 (human) (UniProt P16410); assay: flow cytometry, CHO cells expressing huCTLA4, vs WT CD80 ECD-Fc (R&D)
CD28 (human) [15] = target: CD28 (human) (UniProt P10747); assay: flow cytometry, Jurkat/IL2 reporter cells (CD28), vs WT CD80 ECD-Fc (R&D)

Ratio of PDL1:CD28 [4]: 6 | Fold change to WT CD80 [5]: 14.8 fold | Fold change to WT CD80 [6]: 104 fold | Fold change to WT CD80 [7]: 20.1 fold | MFI at 33.3 nM [8]: 28400 MFI | MFI at 33.3 nM [9]: 7330 MFI | MFI at 33.3 nM [10]: 1320 MFI
B5: variant CD80 IgV-Fc D46V/M47I/A71G (Fc fusion)
chain: VIHVTKEVKEVATLSCGHNVSVEELAQTRIYWQKEKKMVLTMMSGVINIWPEYKNRTIFDITNNLSIVILGLRPSDEGTYECVVLKYEKDAFKREHLAEVTLSVKAD

Ratio of PDL1:CD28 [4]: 6 | Fold change to WT CD80 [5]: 14.5 fold | Fold change to WT CD80 [6]: 72.5 fold | Fold change to WT CD80 [7]: 12.5 fold | MFI at 33.3 nM [8]: 27800 MFI | MFI at 33.3 nM [9]: 5100 MFI | MFI at 33.3 nM [10]: 823 MFI
B6: variant CD80 IgV-Fc M47I/A71G (Fc fusion)
chain: B5 chain with V46D

MFI at 33.3 nM (human CTLA-4 (human) [11]): 246000 MFI | MFI at 33.3 nM (human PD-L1 (human) [12]): 35300 MFI | MFI at 33.3 nM (CD28 (human) [13]): 15300 MFI | Fold change to WT CD80 (human CTLA-4 (human) [14]): 1.56 fold | Fold change to WT CD80 (CD28 (human) [15]): 0.85 fold
B7: variant CD80 IgV-Fc V22A/E35D/M47I/Y87N (Fc fusion)
chain: B5 chain with V22A, E35D, V46D, G71A, Y87N

MFI at 33.3 nM [8]: 22800 MFI | MFI at 33.3 nM [9]: 2610 MFI | MFI at 33.3 nM [10]: 44.6 MFI
B8: variant CD80 IgV-Fc E35D/L97R (Fc fusion)
chain: B5 chain with E35D, V46D, I47M, G71A, L97R

Ratio of PDL1:CD28 [4]: 14 | Fold change to WT CD80 [5]: 12.6 fold | Fold change to WT CD80 [6]: 108 fold | Fold change to WT CD80 [7]: 8 fold | MFI at 33.3 nM [8]: 24200 MFI | MFI at 33.3 nM [9]: 7580 MFI | MFI at 33.3 nM [10]: 528 MFI
B9: variant CD80 IgV-Fc H18Y/E35D/M47L/A71G/A91S (Fc fusion)
chain: B5 chain with H18Y, E35D, V46D, I47L, A91S

The next lines start with the binder.

B1: CD80 C16S/H18L/R29D/Y31L/Q33H/K36G/M38I/T41A/M43R/M47T/E81V/L85R/K89N/A91T/F92P/K93V/R94L/T110A/I118V/H188D ECD-Fc (Fc fusion)
chain: VIHVTKEVKEVATLSSGLNVSVEELAQTDILWHKEGKIVLAMRSGDTNIWPEYKNRTIFDITNNLSIVILALRPSDEGTYVCVVRKYENDTPVLEHLAEVTLSVKADFPAPSISDFEVPTSNIRRIICSTSGGFPEPHLSWLENGEELNAINTTVSQDPETELYAVSSKLDFNMTTNHSFMCLIKYGDLRVNQTFNWNTTKQEHFPDN
MFI (CD28 (human) [1]): 1210 | parental ratio (CD28 (human) [1]): 0.03 | MFI (human CTLA-4 (human) [2]): 1800 | parental ratio (human CTLA-4 (human) [2]): 0.01 | MFI (human PD-L1 (human) [3]): 4500 | parental ratio (human PD-L1 (human) [3]): 0.03

B2: CD80 Y53C/L85R/K89N/A91T/F92P/K93V/R94L/I118V/T120S/I127T/T130A/K169E ECD-Fc (Fc fusion)
chain: VIHVTKEVKEVATLSCGHNVSVEELAQTRIYWQKEKKMVLTMMSGDMNIWPECKNRTIFDITNNLSIVILALRPSDEGTYECVVRKYENDTPVLEHLAEVTLSVKADFPTPSISDFEVPSSNIRRITCSASGGFPEPHLSWLENGEELNAINTTVSQDPETELYAVSSELDFNMTTNHSFMCLIKYGHLRVNQTFNWNTTKQEHFPDN
MFI (CD28 (human) [1]): 1400 | parental ratio (CD28 (human) [1]): 0.03 | MFI (human CTLA-4 (human) [2]): 1460 | parental ratio (human CTLA-4 (human) [2]): 0.01 | MFI (human PD-L1 (human) [3]): 2550 | parental ratio (human PD-L1 (human) [3]): 0.03

B3: CD80 Y53C/L70Q/D90G/T130A/N149D/N152T/H188D ECD-Fc (Fc fusion)
chain: VIHVTKEVKEVATLSCGHNVSVEELAQTRIYWQKEKKMVLTMMSGDMNIWPECKNRTIFDITNNLSIVIQALRPSDEGTYECVVLKYEKGAFKREHLAEVTLSVKADFPTPSISDFEIPTSNIRRIICSASGGFPEPHLSWLENGEELDAITTTVSQDPETELYAVSSKLDFNMTTNHSFMCLIKYGDLRVNQTFNWNTTKQEHFPDN
MFI (CD28 (human) [1]): 1990 | parental ratio (CD28 (human) [1]): 0.04 | MFI (human CTLA-4 (human) [2]): 3110 | parental ratio (human CTLA-4 (human) [2]): 0.01 | MFI (human PD-L1 (human) [3]): 3290 | parental ratio (human PD-L1 (human) [3]): 0.04

B4: CD80 R29D/Y31L/Q33H/K36G/M38I/T41A/M43R/M47T/L70Q/D76G/A91G/S103L/I118V/T120S/I127T/T130A ECD-Fc (Fc fusion)
chain: VIHVTKEVKEVATLSCGHNVSVEELAQTDILWHKEGKIVLAMRSGDTNIWPEYKNRTIFDITNNLSIVIQALRPSGEGTYECVVLKYEKDGFKREHLAEVTLLVKADFPTPSISDFEVPSSNIRRITCSASGGFPEPHLSWLENGEELNAINTTVSQDPETELYAVSSKLDFNMTTNHSFMCLIKYGHLRVNQTFNWNTTKQEHFPDN
MFI (CD28 (human) [1]): 1910 | parental ratio (CD28 (human) [1]): 0.04 | MFI (human CTLA-4 (human) [2]): 1730 | parental ratio (human CTLA-4 (human) [2]): 0.01 | MFI (human PD-L1 (human) [3]): 3510 | parental ratio (human PD-L1 (human) [3]): 0.04
